From the Immune Epitope Database (IEDB) come the findings set out here.

For assay [1], the target named is HLA-B*44:03. Nature of the assay: IEDB peptide-MHC binding, purified MHC/competitive/radioactivity; filed as Kd, often an IC50 or EC50 that approximates it; ≥ and ≤ were set here for values at or beyond the usual limits of such assays.
Assay [2] has as its target HLA-B*44:02. The assay is described as above.
Assay [3] addresses HLA-B*40:01. Described as above.
For assay [4], the target named is HLA-A*24:03. Put plainly: IEDB peptide-MHC binding, purified MHC/direct/fluorescence; filed as Kd, often an IC50 or EC50 that approximates it; ≥ and ≤ were set here for values at or beyond the usual limits of such assays.
Assay [5] addresses HLA-B*15:03. Nature of the assay: IEDB peptide-MHC binding, purified MHC/competitive/radioactivity; filed as Kd, often an IC50 or EC50 that approximates it; ≥ and ≤ were set here for values at or beyond the usual limits of such assays.
For assay [6], the target named is HLA-B*07:02. The description is as above.
Assay [7] addresses HLA-B*53:01. The assay is described as above.
The target in assay [8] is HLA-A*24:02. Nature of the assay: IEDB peptide-MHC binding, purified MHC/competitive/fluorescence; ≥ and ≤ were set here for values at or beyond the usual limits of such assays.
In assay [9] the target is HLA-A*68:02. Nature of the assay: IEDB peptide-MHC binding, purified MHC/competitive/radioactivity; filed as Kd, often an IC50 or EC50 that approximates it; ≥ and ≤ were set here for values at or beyond the usual limits of such assays.
Assay [10] deals with HLA-A*02:06. The assay is described as above.
In assay [11] the target is HLA-A*02:02. The assay is described as above.
Assay [12] addresses HLA-A*02:03. The description is as above.
The target of assay [13] is HLA-B*51:01. Put plainly: IEDB peptide-MHC binding, purified MHC/competitive/fluorescence; filed as Kd, often an IC50 or EC50 that approximates it; ≥ and ≤ were set here for values at or beyond the usual limits of such assays.
For assay [14], the target named is HLA-A*02:01. Put plainly: IEDB peptide-MHC binding, purified MHC/competitive/fluorescence; ≥ and ≤ were set here for values at or beyond the usual limits of such assays. The settings on record: source organism: Zaire ebolavirus.
The target of assay [15] is HLA-B*51:01. Put plainly: IEDB peptide-MHC binding, purified MHC/competitive/radioactivity; filed as Kd, often an IC50 or EC50 that approximates it; ≥ and ≤ were set here for values at or beyond the usual limits of such assays.
The target of assay [16] is HLA-B*08:01. Described as above. The settings on record: source organism: Dengue virus 2 Jamaica/1409/1983.
For assay [17], the target named is HLA-B*15:01. Nature of the assay: IEDB peptide-MHC binding, purified MHC/competitive/fluorescence; filed as Kd, often an IC50 or EC50 that approximates it; ≥ and ≤ were set here for values at or beyond the usual limits of such assays.
For assay [18], the target named is HLA-A*02:01. Nature of the assay: IEDB peptide-MHC binding, purified MHC/direct/fluorescence; filed as Kd, often an IC50 or EC50 that approximates it; ≥ and ≤ were set here for values at or beyond the usual limits of such assays. The settings on record: source organism: Yersinia pestis.
The target in assay [19] is HLA-A*31:01. Described as above. The settings on record: source organism: Yersinia pestis.
Assay [20] addresses HLA-B*27:05. The description is as above. Particulars: source organism: Yersinia pestis.
Assay [21] deals with HLA-B*58:01. The description is as above. The settings on record: source organism: Yersinia pestis.
Assay [22] addresses HLA-B*15:01. The description is as above. The settings on record: source organism: Yersinia pestis.
Assay [23] addresses HLA-A*03:01. Described as above. Particulars: source organism: Yersinia pestis.
Assay [24] concerns the target HLA-B*08:01. The assay is described as above. Particulars: source organism: Yersinia pestis.
Assay [25] addresses HLA-A*01:01. Described as above. The settings on record: source organism: Yersinia pestis.
Assay [26] deals with HLA-A*11:01. The description is as above. Particulars: source organism: Yersinia pestis.
Assay [27] addresses HLA-A*69:01. The assay is described as above. Particulars: source organism: Yersinia pestis.
Assay [28] addresses HLA-A*26:01. The description is as above. Particulars: source organism: Yersinia pestis.
The target in assay [29] is HLA-B*40:01. The description is as above. The settings on record: source organism: Yersinia pestis.
The target of assay [30] is HLA-B*07:02. The description is as above. Particulars: source organism: Yersinia pestis.
The mark [31] stands for this setting: source organism: Dengue virus 4 Philippines/H241/1956.
[32] abbreviates: source organism: Dengue virus 3 Sri Lanka/1266/2000.
Where [33] appears, read: source organism: Vaccinia virus Copenhagen.
The mark [34] stands for this setting: source organism: Dengue virus 2 Jamaica/1409/1983.
Setting [35] is: source organism: Vaccinia virus WR.
The mark [36] stands for this setting: source organism: Dengue virus 1 Brazil/97-11/1997.
The mark [37] stands for this setting: source organism: Sudan ebolavirus.
Setting [38] is: source organism: Mammarenavirus whitewaterense.
The mark [39] stands for this setting: source organism: Zaire ebolavirus.
The mark [40] stands for this setting: source organism: Dengue virus 3 Martinique/1243/1999.
[41] abbreviates: source organism: Dengue virus 1 Singapore/S275/1990.
The mark [42] stands for this setting: source organism: Dengue virus 4 Dominica/814669/1981.
Where [43] appears, read: source organism: Yersinia pestis.
The mark [44] stands for this setting: source organism: Lassa virus Josiah.

Some results are limits rather than exact numbers.

Take SLIEVKTCLW: the Kd – broadly, the concentration at which binding is half-saturated – in assay [1] (setting [31]) was 2330 nM.
Take SECPNERRAW: the Kd in [2] (setting [31]) is 74.7 nM; in assay [1] (setting [31]) it was 56.5 nM.
With LEKKITQWL, the Kd in assay [2] (setting [32]) worked out at 331 nM; in [3] (setting [32]), 191 nM.
In turn, RYGWSGAVF showed a Kd in [4] (source organism: Shigella sonnei Ss046) of at most 1 nM.
Consider TEIASLPTYL, for which the results for the equilibrium dissociation constant (Kd) in [2] (setting [31]), in assay [1] (setting [31]) and in assay [3] (setting [31]) were 34.7 nM, 222 nM and 15 nM, respectively.
Take SDTRSVNSF: in assay [5] (setting [33]), the Kd was 92.7 nM.
As to TEAKQPATL, the Kd in assay [3] (setting [34]) is 18.6 nM.
FLFLNINHY: the Kd in [5] (setting [35]) was found to be 6.46 nM.
Consider SPGKFWNTTI, for which the Kd in assay [6] (setting [36]) turned out to be 5.6 nM.
With EPGQLKLNW, the Kd in assay [7] (setting [34]) worked out at 33.1 nM.
Turning to PSATKRWGF, the IC50 (usually the point on the concentration scale where inhibition reaches its midpoint) in assay [8] (setting [37]) was determined as 10200 nM. In other words, the double-digit micromolar range.
Consider ALNIALIAV, for which the Kd in assay [9] (setting [38]) came to 3090 nM; in assay [10] (setting [38]) it was 100 nM; in assay [11] (setting [38]), 0.699 nM; in assay [12] (setting [38]), 0.225 nM.
Regarding LSYGPAFIV, the Kd in assay [13] (source organism: Entamoeba histolytica HM-1:IMSS) is at least 20000 nM.
The sequence PKRSVMLIG displayed an IC50 in assay [8] (setting [35]) of 38400 nM. That is a double-digit micromolar value.
AENTNTSKS: the figures for the IC50 in assay [14] and in assay [8] (setting [39]) were at least 187000 nM and at least 534000 nM, respectively.
With IMSLFSTSA, in assay [5] (setting [35]), the Kd stood at 7.67 nM.
Take FLVIAINAM: the Kd in assay [5] (setting [35]) is 440 nM.
As to GEYRLKGESR, the Kd in [3] (setting [40]) amounted to 4130 nM.
For the sequence IETLMLLALI, the values for the Kd in [1] (setting [36]) and in [3] (setting [36]) were 1050 nM and 206 nM, respectively.
For LSIPATLFVW, the Kd in assay [7] (setting [41]) came out at 92.8 nM.
For SPGTSGSPII, in assay [6] (source organism: Dengue virus 2 16681-PDK53), the Kd was 132 nM.
In the case of RFLVINRLG, in [8] (setting [35]), the IC50 amounted to 16400 nM.
With TTGKLIWKV, the half-inhibitory concentration (IC50) in [14] amounted to 1240 nM; in assay [8] (setting [39]), 62700 nM.
On to KKNNRVLCF, for which, in [5] (setting [35]), the Kd came out at 1.59 nM.
With QPMELKYSW, the Kd in assay [7] (setting [40]) was 7.76 nM.
As for FARDNQISF, the Kd in assay [5] (setting [35]) is 0.195 nM.
Consider IPMTGPLVA, for which, in assay [6] (setting [34]), the Kd was determined as 50.7 nM.
Consider LWFNYLFGG, for which, in [8] (source organism: Variola virus), the IC50 came out at 57800 nM. This lies in the double-digit micromolar range.
Turning to PWTKISETK, in assay [8] (setting [35]), the IC50 is at least 169000 nM.
In the case of GPLKLFMAL, the Kd in assay [15] (setting [34]) was at least 77400 nM; in assay [16], 19.3 nM; in assay [7] (setting [34]), 1010 nM; in assay [6] (setting [34]) it was 2.35 nM.
In assay [17] (source organism: Human immunodeficiency virus 1), TQGYFPDWQNY displayed a Kd of 84.6 nM.
As for GEWKEGEEV, the figures for the Kd in [2] (setting [34]) and in assay [3] (setting [34]) were 16300 nM and 295 nM, respectively.
Turning to FETYQLWTAL, the Kd in [15] (setting [40]) is 1900 nM; in assay [3] (setting [40]), 10.4 nM.
As to RSRWSRKMLM, in [6] (setting [36]), the Kd was determined as 154 nM.
Consider IFVIDNVHTW, for which the Kd in [7] (setting [31]) is 500 nM.
With LPVWLSYKV, the Kd in assay [15] (setting [36]) turned out to be 418 nM; in [7] (setting [36]) it was 164 nM.
In the case of IKYMIGNFM, the Kd in [5] (setting [35]) amounted to 2.15 nM.
For the sequence QKIWMAPSL, the IC50 in assay [14] was 14500 nM; in assay [8] (setting [39]), at least 92400 nM.
For the sequence IENTSANLSL, in assay [3] (setting [31]), the Kd came to 34.4 nM.
MEGVFHTMW: the Kd was 17.4 nM in assay [2] (setting [31]) and 2.58 nM in assay [1] (setting [31]).
In [4] (source organism: Vibrio parahaemolyticus), FFPMVTDAW had a Kd of at most 1 nM.
Take YVQLESRFT: the IC50 in [14] was 39300 nM; in assay [8] (setting [39]), at least 203000 nM.
For the sequence MEFIDGISLG, the Kd in assay [3] (setting [31]) worked out at 137 nM.
Turning to KEENLVKSM, in assay [3] (setting [41]), the Kd turned out to be 2830 nM.
Regarding WKVLSIMAF, the Kd in assay [5] (setting [33]) was 9.29 nM.
As for NELNYVLWE, in assay [1] (setting [31]), the Kd is 159 nM.
For the sequence PPVNDLKYSW, the Kd in assay [7] (setting [31]) was found to be 96.8 nM.
For AERIGEPDY, the Kd in [2] (setting [42]) is 203 nM; in [1] (setting [42]), 797 nM.
TEEIAVQNW: the Kd came out at 15.4 nM in assay [2] (setting [34]) and 36.8 nM in [1] (setting [34]).
As for KEYTYPDSL, in assay [8] (setting [39]), the IC50 is at least 184000 nM.
In assay [13] (source organism: Bacillus cereus 95/8201), MQYVPAWIV gave a Kd of at least 20000 nM.
With LTDEDKQNQ, the Kd in [18], in [19], in assay [20], in assay [21], in [22] and in assay [23] was at least 20000 nM in each case. Further, the Kd in assay [24], in assay [4] (setting [43]), in assay [25], in [26], in assay [27] and in assay [28] was at least 20000 nM each time. Moreover, the equilibrium dissociation constant (Kd) in assay [29] and in [30] was at least 20000 nM in each case.
As to GLYKQPGVPV, the Kd was at least 5000 nM in [9] (setting [44]), 804 nM in assay [10] (setting [44]), 1400 nM in [11] (setting [44]) and 23.8 nM in [12] (setting [44]).
Regarding LENDEDCAHW, the Kd in [2] (setting [34]) and in assay [1] (setting [34]) was 103 nM throughout.
Turning to QESADSFLL, in assay [8] (setting [39]), the IC50 was at least 138000 nM.
For the sequence SEFQIYKKS, in [1] (setting [34]), the Kd stood at 825 nM.
On to LETRTETWM, for which the Kd in [3] (setting [34]) was 253 nM.
In assay [17] (setting [43]), LEVNNPTPF gave a Kd of 98 nM.
Regarding EPHWIAASI, the Kd in assay [15] (setting [36]) is 172 nM; in assay [7] (setting [36]), 333 nM; in [6] (setting [36]), 267 nM.
With AETQHGTIV, the values for the Kd in assay [1] (setting [34]) and in assay [3] (setting [34]) were 225 nM and 15.1 nM, respectively.
With AGIAWIPYF, the IC50 in assay [8] (setting [37]) was found to be 2640 nM.
Take SPGYVLGVF: in [6] (setting [42]), the Kd worked out at 8.71 nM.
